{"source": "the nanobody polyreactivity screen of Harvey et al. (2022)", "data": [{"experiment": "yeast display, Sf9 membrane polyspecificity reagent, FACS + sequencing; frameworks hold sequencing errors", "outline": "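After 36–48 hours of galactose induction, yeast (Saccharomyces cerevisiae BJ5465) displaying a synthetic nanobody library were stained at 4 °C for 1 hour with 10% biotinylated, detergent-solubilized Sf9 membrane reagent. Streptavidin microbeads enriched the stained cells before FACS sorting into low and high (top ~1%) gates on anti-HA and streptavidin fluorescence. Each clone's polyreactivity label reflects its gate of origin.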", "values": [{"sequence": "QVQLVESGGGLVQAGGSLRLSCAASGSIFRINAMGWYRPAPGKEREFVAAIRGSGGRTYYAESVKGRFTISRDNAKNTVYLQMNSLKPEDTAVYYCAADFSYRYFQRTSWPFDYWGQGTQVTVSS", "polyreactivity (PSR sort gate)": "high polyreactivity"}, {"sequence": "QVQLVESGGGLVQAVVSLRLSCADTGFTFRRYAMGWDRQAPGKERELVAVITTAGSTNYADSVKGRFTISRDNAKNTVYLKMNSLKPEDTAVYYCATDNGTRKRRYDYWGQGTQVTVSS", "polyreactivity (PSR sort gate)": "low polyreactivity"}, {"sequence": "QVQLVESGGGLVQAGGSLRLSCAASGNIFKVYVMGWYRQAPGKERELVAAISGSGGSTYYADSVKGRFTISRDNAKNTVYLQMNSLKPEDTAVYYCNKVFKVTAARSFGYWGQGTQVTVSS", "polyreactivity (PSR sort gate)": "low polyreactivity"}, {"sequence": "QVQLVESWGGLVQAGGSLRLSCDASGSTFIPKDMGWYRQAPGKERELVAAITVSGDDTYYADSVKGRFTISRDNAKNTVYIQMNILKPEVTAVYYCAAEWGLYVGQYEYCGQGTQVTVSS", "polyreactivity (PSR sort gate)": "low polyreactivity"}, {"sequence": "QVQLVESGGGIVQAGGSIRLRCAASGIIFVVNDMGWYRQAPGKERELVADISDSGGSTNYADSVKGRFTISRDNAKNTVYLQMNRLKPEDTAVYYCAADSADPTEYDYWGQGSQVTVSS", "polyreactivity (PSR sort gate)": "low polyreactivity"}, {"sequence": "QVQLVESGGGLVQAGGSLRLSCAASGFIFYPYAMGWYRQAPGKVRELVAVITSGGRTYYADSVKGRFTISRDNAKNTVYLQMNSLKAEDTAVYYCAARYGRIHWKANWPEYGYWGQGTQVTVSS", "polyreactivity (PSR sort gate)": "low polyreactivity"}, {"sequence": "QVQLVESGGGLVQARGSLRLSCAASGLTFTVDAMGWYRQAPGKEREFVAAISYSAGRTYYADSVKGRFTISRDNAKNTVYLQMNSLKPADTAVYYCAAATYYSIYDYWGQGTQVTVSS", "polyreactivity (PSR sort gate)": "high polyreactivity"}, {"sequence": "QVQLEESGGGLVQAGGSLRLSCAASGSTFTGYAMGWYRQAPGKERELVAAIPISGGRTFYADSVKGRFTISRDNAKNTVYLQMNSLKPEDTAFYYCAAYLRGSKYSFDYWGQGTQVTVSS", "polyreactivity (PSR sort gate)": "high polyreactivity"}, {"sequence": "QVQLVESGGGLVQAGGSLRLSCAASGSIFVGNTMGWYRQAPGKERELVAALTWSGGRTYYADSVKGRFTISRDNEKNTVYLQMHSLKPEDTAVYYCNALANYIRYYYWGQGTQVTVSS", "polyreactivity (PSR sort gate)": "high polyreactivity"}, {"sequence": "QVQLVESGGGLVQAGGSLRLSCAASGSIFYDNAMGWYRQAPGKERELVAAITSTGGSTYYADSVKGRFTISRDNAKNTVYLQMNSLKPEDTAVYYCNTPTYLYWGFYTYDYWGQGTQVTVSS", "polyreactivity (PSR sort gate)": "low polyreactivity"}, {"sequence": "QVQLVESGGGLVQAGGSLRLSCAASGRIVYSNAMVWYRQAPGKERELVASITRGSRTNYADSVKGRFTISRDNAKHSVYLPMNSLKPEDTAVYYCARRYLLKPGFGRFYYWGQGNQVTVSS", "polyreactivity (PSR sort gate)": "high polyreactivity"}, {"sequence": "QVQLVESGGGLVQAGGSLRLSCAASGRIFYPYAMGWYRQAPGKERELVAAITYSGGSTYYADSVKGRFTISRDNAKNTVYLQMNSLKPEDTAVYYCNAVQRGSFYLGKFGYWGQGTQVTVSS", "polyreactivity (PSR sort gate)": "high polyreactivity"}, {"sequence": "QFQLEESRGGLVQAGGSLRLSCAASGRIFDLYAMGWYRQAPGKETELVATISGSGGSTYYADSVKGRFTISRDNAKNTVYLQMNSLKPEDTAVYYCAAVSVSSWYDYWGQGTQVTVSS", "polyreactivity (PSR sort gate)": "low polyreactivity"}, {"sequence": "QVQLVESGGGLVQAGGSLRLSCAASGYTFYQNAMGWYRQAPGKERELVAAITFRTGSTYYADSVKGRFTISRDNAKNTVYLQMNSLKPEDTAVYYCAATRFLRDWWYGYWGQGTQVTVSS", "polyreactivity (PSR sort gate)": "low polyreactivity"}, {"sequence": "QVQLVESGGGLVQAGGSLRLSCAASGSIFSENAMGWYRQAPGKERELVAAITGGASTNYADSVKGRFTISRDNAKNTVYLQMNSLKPEDTAVYYCAADANRTKFDYWGQGTQVTVSS", "polyreactivity (PSR sort gate)": "low polyreactivity"}, {"sequence": "QVQLVESGGGLVQAGGSLRLSCAASGSILTPNAMGWYRQAPGKERELVATISKGGGRTYYADSVKGRFTISRDNAKNTVYLQMNSLKPEDTAVYYCAADARRNSPGNYWGQGTQVTVSS", "polyreactivity (PSR sort gate)": "high polyreactivity"}, {"sequence": "QVQLVESGGGLVQAGGSLRLSCAASGLIFGYNAMGWYRQAPGKEREYVAGISVIDGRTYYADSVKGRFTISRDNAKNTVYLQMNSLKPEDTAVYYCATEGFVYSWLWEFEYWGQGNQVTVSS", "polyreactivity (PSR sort gate)": "low polyreactivity"}]}]}
